Reference: US20130330414A1

Target: 8.3-TCR on 8.3-CD8+ T-cells of 8.3-TCR-transgenic NOD mice
Assay: cell-based or functional assay

Sequence of IGRP206-214/K^d pMHC complex (P01902 22-305, one chain of several): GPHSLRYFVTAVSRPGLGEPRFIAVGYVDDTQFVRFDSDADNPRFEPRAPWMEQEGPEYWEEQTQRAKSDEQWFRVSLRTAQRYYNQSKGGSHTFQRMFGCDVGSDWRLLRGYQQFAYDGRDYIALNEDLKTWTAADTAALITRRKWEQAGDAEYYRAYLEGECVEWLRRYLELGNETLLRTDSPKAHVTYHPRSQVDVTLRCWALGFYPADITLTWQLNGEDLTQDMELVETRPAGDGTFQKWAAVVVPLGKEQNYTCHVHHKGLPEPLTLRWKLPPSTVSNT

IFNγ responses (ng/mL); NP IGRP-SFP-011411, Fe3O4 8 nm, pMHC valency 54, 5 × 10^11 NPs/mL: 2.3 ng/mL | IFNγ responses (ng/mL); NP IGRP-SFP-012011, Fe3O4 8 nm, pMHC valency 14, 5 × 10^11 NPs/mL: 0.2 ng/mL | IFNγ responses (ng/mL); NP IGRP-SFP-031511, Fe3O4 8 nm, pMHC valency 15, 5 × 10^11 NPs/mL: 0.15 ng/mL | IFNγ responses (ng/mL); NP IGRP-SFP-051211, Fe3O4 8 nm, pMHC valency 31, 5 × 10^11 NPs/mL: 0.7 ng/mL | IFNγ responses (ng/mL); NP IGRP-SFP-100711, Fe3O4 8 nm, pMHC valency 39, 5 × 10^11 NPs/mL: 0.9 ng/mL | IFNγ responses (ng/mL); NP IGRP-SFP-102912, Fe3O4 8 nm, pMHC valency 11, 5 × 10^11 NPs/mL: 0.4 ng/mL | IFNγ responses (ng/mL); NP IGRP-SFPM-110512, Fe3O4 8 nm, pMHC valency 8, 5 × 10^11 NPs/mL: 0.03 ng/mL
Substance: IGRP206-214/K^d pMHC complex (from UniProt Q9Z186 206-214; P01902 22-305) (peptide-MHC)
